Reference: the supplement of paper PMC10567573

B1: COX4I1 (parent)
chain: FDKEWVAKQTKRMLDMKVNPIQGL
B2: LOXL2 (parent)
chain: YVEVKEGKTWKQICDKHWTAKNSR

Variants of: B1
Experiment: protein stability index of a GFP-peptide fusion (GPS, HEK-293T) (PSI 1-6); higher = more stable
Conditions: c terminus: a fixed tail appended
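Note: lentivirally expressed fusions sorted by FACS into six bins by GFP to DsRed ratio, PSI derived from sequencing read proportions per bin multiplied by bin number.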

Protein stability index of substitutions, site by site:
K3: M 1.64, P 1.75, F 1.87, W 1.29, R 1.66, E 2.83, V 1.68, D 2.57, S 2.19, Y 2.13, G 1.91, T 2.1, L 2.06, Q 2.85, N 2.06, H 1.52, C 2.12, A 2.17
A7: D 2.32, E 1.77, Y 1.71, R 2.45, M 1.81, I 1.68, H 1.74, N 1.65, S 1.11, G 2.28, L 1.56, K 2.29, V 1.18, F 1.56, W 1.77, C 1.27, Q 1.84, P 2.05, T 1.76
W5: L 3, T 2.87, H 2.84, P 3.63, S 3.61, A 3.96, M 3.52, C 3.78, I 3.44, D 4.22, Q 3.85, Y 3.22, G 3.92, E 3.6, R 3.98, N 3.86, F 2.8, V 4.17, K 3.54
F1: I 3.11, Y 1.71, Q 3.31, L 3.57, K 3.57, A 3.42, D 4.38, R 2.42, M 3.23, S 3.34, H 3.13, T 3.71, G 2.92, P 3.44, W 2.17, N 3.79, C 2.62, V 2.77, E 3.19
D15: Q 1.6, V 1.33, A 1.62, T 1.84, P 1.84, M 3.02, K 1.89, E 1.68, Y 2.36, F 1.84, G 1.75, I 1.76, H 1.88, L 1.64, W 2.07, N 1.58, C 1.66, S 1.58
L14: P 1.65, I 2.1, G 1.72, K 2.12, V 1.41, M 1.47, H 1.65, Y 2.42, C 1.38, D 2.06, N 1.56, F 2.88, T 1.79, S 1.54, Q 1.23, A 2.35, E 1.43, R 1.82
K8: R 2.42, T 1.48, V 1.84, A 1.06, E 2.35, W 3.04, H 1.77, S 1.75, Q 1.18, N 1.38, D 2.29, L 2.31, M 1.88, C 2.68, Y 2.59, G 1.87, P 2.33, F 1.99
V6: W 2.67, D 2.78, I 1.35, G 2.31, P 1.86, S 1.96, Q 2.83, F 1.55, Y 1.6, K 2.28, R 2.1, A 3.39, T 1.93, H 2.06, E 3.33, C 1.53, N 1.79, L 2.37, M 1.93
M13: E 2.06, Q 2.99, S 2.4, Y 1.63, D 1.59, C 2.17, R 1.64, H 1.43, I 2.34, K 1.88, F 2.12, L 2.36, W 1.56, T 1.82, G 1.64, A 1.13, N 2.23, P 2.35
E4: G 1.43, M 1.26, A 2.41, S 1.43, P 1.66, R 1.84, W 1.66, Q 1.53, V 2.42, K 1.82, Y 1.89, T 2.34, C 1.62, N 1.69, D 1.9, I 1.47, H 2.35, L 1.88, F 1.63
T10: S 1.08, A 1.41, Y 1.6, N 1.73, I 2.82, D 1.82, G 2.67, L 1.24, M 1.91, W 1.82, H 1.69, F 1.82, V 1.49, C 1.7, P 2, E 2.21, Q 1.84, K 1.78, R 2.35
K11: E 1.86, F 1.97, D 1.54, V 2.58, G 1.62, L 1.61, Y 3.38, P 2.32, T 1.92, S 2.28, M 1.9, W 1.52, A 1.84, N 1.54, H 1.7, C 2.77, R 1.92, I 1.8, Q 1.79
Q9: I 1.6, A 3.55, R 1.87, S 2.46, T 2.87, E 2.26, V 1.46, Y 2.14, M 2.54, H 1.77, N 1.42, W 1.8, K 2.62, G 2.65, C 3.23, P 2, L 2.08, F 1.54, D 2.2
R12: A 1.88, K 1.81, H 1.97, L 3.17, Q 2.84, V 2.27, G 1.35, I 1.96, D 1.88, N 1.36, C 1.43, T 1.54, M 1.6, S 3.04, W 1.65, F 2.17, E 2.59, Y 1.56
D2: E 1.89, R 1.27, P 2.51, Y 1.76, G 1.55, A 2.65, T 1.35, V 1.26, K 1.62, C 4.02, L 1.09, W 1.52, I 2.45, M 1.93, N 2.57
K17: A 1.96, M 1.58, G 1.51, D 2.49, L 2.57, F 2.16, H 1.44, C 2.08, I 2.3, E 1.71
M16: N 1.67, Q 2.4, T 1.79, R 1.72, F 1.62, L 2, P 2.19, I 2.1, Y 1.75, K 1.5, E 1.52, V 1.71, S 1.88, D 1.97, G 2.13, A 1.48, W 2.02, C 1.65, H 1.42

Variants of: B2
Experiment: as above
Conditions: c terminus: a fixed tail appended

Protein stability index, by site and new letter:
R24: G 1.53, H 3.07, I 1.74, Y 3.45, P 1.69, K 2.76, S 3.24, M 2.09, T 3.49, Q 2.33, E 2.33, L 2.46, C 2.72, V 2.2, D 1.91, W 1.79, F 2.94, N 2.48, A 2.42
S23: H 2, L 2.42, T 2.33, M 1.97, I 2.82, K 2.88, N 1.71, V 2.15, P 1.94, R 2.09, Y 2.64
